The chains are these.
B2: recombinant human FXII with 6XHis C-terminal tag (natural protein, UniProt P00748 20-615, looked up)
chain: IPPWEAPKEHKYKAEEHTVVLTVTGEPCHFPFQYHRQLYHKCTHKGRPGPQPWCATTPNFDQDQRWGYCLEPKKVKDHCSKHSPCQKGGTCVNMPSGPHCLCPQHLTGNHCQKEKCFEPQLLRFFHKNEIWYRTEQAAVARCQCKGPDAHCQRLASQACRTNPCLHGGRCLEVEGHRLCHCPVGYTGAFCDVDTKASCYDGRGLSYRGLARTTLSGAPCQPWASEATYRNVTAEQARNWGLGGHAFCRNPDNDIRPWCFVLNRDRLSWEYCDLAQCQTPTQAAPPTPVSPRLHVPLMPAQPAPPKPQPTTRTPPQSQTPGALPAKREQPPSLTRNGPLSCGQRLRKSLSSMTRVVGGLVALRGAHPYIAALYWGHSFCAGSLIAPCWVLTAAHCLQDRPAPEDLTVVLGQERRNHSCEPCQTLAVRSYRLHEAFSPVSYQHDLALLRLQEDADGSCALLSPYVQPVCLPSGAARPSETTLCQVAGWGHQFEGAEEYASFLQEAQVPFLSLERCSAPDVHGSSILPGMLCAGFLEGGTDACQGDSGGPLVCEDQAAERRLTLQGIISWGSGCGDRNKPGVYTDVAYYLAWIREHTVS
notes: signal peptide in the construct; also called factor XII; source: CHO-K1, transfected (pCMV6-XL5), purified from cell lysate (Ni-NTA agarose); not shown: His6, C-terminal, kept

What all share (details): both partners purified
For experiment [1], the target named is B2. Briefly: co-IP; purified proteins: hPEPD, an hPEPD mutant or mSRC at 40 nM incubated with a coagulation factor, FXII or an FXII mutant at 0.5 μM in PBS, 100 μl, 2 h at 37°C; then a specific primary antibody at 4°C overnight, IP by protein G-agarose, IB.
Experiment [2] concerns the target T1, 20I-50Pdel-FXII (human, UniProt P00748 20-615, 20I-50Pdel).
T1 construct: signal peptide in the construct; source: CHO-K1, transfected (pCMV6-XL5), purified from cell lysate (Ni-NTA agarose); not shown: His6, C-terminal, kept
T1 sequence (looked up): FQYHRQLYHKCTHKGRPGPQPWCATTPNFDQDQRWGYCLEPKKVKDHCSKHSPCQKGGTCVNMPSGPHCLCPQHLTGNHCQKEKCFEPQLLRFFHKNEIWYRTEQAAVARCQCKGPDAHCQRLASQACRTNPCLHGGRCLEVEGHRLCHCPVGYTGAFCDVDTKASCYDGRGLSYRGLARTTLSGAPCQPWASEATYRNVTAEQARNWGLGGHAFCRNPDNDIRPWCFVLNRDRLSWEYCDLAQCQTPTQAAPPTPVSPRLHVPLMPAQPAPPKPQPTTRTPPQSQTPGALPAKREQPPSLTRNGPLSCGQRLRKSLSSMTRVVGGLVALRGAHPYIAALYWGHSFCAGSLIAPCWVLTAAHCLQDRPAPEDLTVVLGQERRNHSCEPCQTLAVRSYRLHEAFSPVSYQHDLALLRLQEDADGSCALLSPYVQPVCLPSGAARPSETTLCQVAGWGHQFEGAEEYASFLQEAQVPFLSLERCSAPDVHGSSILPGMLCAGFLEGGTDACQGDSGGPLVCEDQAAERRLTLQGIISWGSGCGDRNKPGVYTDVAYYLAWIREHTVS
The experiment is described as above.

Experiment [3] deals with T2, 153T-172Rdel-FXII (human, UniProt P00748 20-615, 153T-172Rdel).
T2 construct: signal peptide in the construct; source: CHO-K1, transfected (pCMV6-XL5), purified from cell lysate (Ni-NTA agarose); not shown: His6, C-terminal, kept
T2 sequence (looked up): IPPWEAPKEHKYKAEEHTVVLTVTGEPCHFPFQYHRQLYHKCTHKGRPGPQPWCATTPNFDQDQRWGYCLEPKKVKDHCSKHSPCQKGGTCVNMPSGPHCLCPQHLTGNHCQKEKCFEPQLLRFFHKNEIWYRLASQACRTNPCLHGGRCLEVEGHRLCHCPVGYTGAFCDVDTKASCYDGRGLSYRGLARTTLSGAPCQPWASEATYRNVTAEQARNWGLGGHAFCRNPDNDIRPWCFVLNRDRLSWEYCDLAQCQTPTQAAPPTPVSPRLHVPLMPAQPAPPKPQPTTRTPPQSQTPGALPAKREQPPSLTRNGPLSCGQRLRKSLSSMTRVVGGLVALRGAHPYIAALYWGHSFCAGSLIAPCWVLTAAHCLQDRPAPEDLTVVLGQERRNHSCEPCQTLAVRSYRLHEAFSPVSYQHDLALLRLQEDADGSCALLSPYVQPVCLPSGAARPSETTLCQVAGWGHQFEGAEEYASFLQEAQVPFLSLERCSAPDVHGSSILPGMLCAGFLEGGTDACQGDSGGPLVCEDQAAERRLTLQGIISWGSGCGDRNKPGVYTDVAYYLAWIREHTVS
The description is as above.

Experiment [4] deals with T3, human amyloid β1-42 (human, UniProt P05067 672-713).
T3 construct: amyloid β1-42, the peptide cut by secretases from the human Aβ precursor protein; numbers count on: the peptide; also called hAβ1-42; Aβ1-42; source: bought: Sigma-Aldrich (A9810)
Briefly: co-sedimentation; hAβ1-42 (200 nM) incubated with FXII or a mutant (20 nM) in PBS, 100 μl, 2 h at RT; Aβ1-42 aggregated; low-speed centrifugation; precipitates re-dissolved in 2% SDS and analysed with the supernatants by IB.

B1: recombinant human prolidase (peptidase D, PEPD) (enzyme, UniProt P12955 1-493, looked up)
chain: MAAATGPSFWLGNETLKVPLALFALNRQRLCERLRKNPAVQAGSIVVLQGGEETQRYCTDTGVLFRQESFFHWAFGVTEPGCYGVIDVDTGKSTLFVPRLPASHATWMGKIHSKEHFKEKYAVDDVQYVDEIASVLTSQKPSVLLTLRGVNTDSGSVCREASFDGISKFEVNNTILHPEIVECRVFKTDMELEVLRYTNKISSEAHREVMKAVKVGMKEYELESLFEHYCYSRGGMRHSSYTCICGSGENSAVLHYGHAGAPNDRTIQNGDMCLFDMGGEYYCFASDITCSFPANGKFTADQKAVYEAVLRSSRAVMGAMKPGVWWPDMHRLADRIHLEELAHMGILSGSVDAMVQAHLGAVFMPHGLGHFLGIDVHDVGGYPEGVERIDEPGLRSLRTARHLQPGMVLTVEPGIYFIDHLLDEALADPARASFLNREVLQRFRGFGGVRIEEDVVVTDSGIELLTCVPRTVEEIEACMAGCDKAFTPFSGPK
notes: human prolidase (peptidase D); also called hPEPD; source: recombinant, generated, purified and characterized as recently reported [7, 11]; not shown: His6, C-terminal, kept
Take B1: the binding result in experiment [1], in experiment [2] and in experiment [3] was “binds” in each case.

As for B2, the binding result in experiment [4] is listed as “binds”.
